# Reference: US20220193132A1 (NATIONAL RESEARCH COUNCIL OF CANADA, published 2022)
# B1: F263-4E11 (antibody, V domains shown)
# VH: DVQLQESGPGLVKPSQSLSLTCTVTGYSITSDYAWNWIRQFPGNKLEWMGYIGYNGRTSYNPSLKSRISITRDTSKNQFFLQLNYVTTEDTATFYCARLGRGFAYWGQGTLVTVSA
# VL: DILMTQSPSSMSVSLGDTVSITCHASQGINSNIGWLLQKPGKSFKGLIYHGTNLEDGVPSRFSGSGSGTDYSLTISSLESEDFADYYCVQYAQFPYTFGGGTKLEIK
# notes: Mouse hybridoma mAb
# Columns and labels:
# [1] = target: T1, recombinant human wild type EGFR protein (extracellular domain), native (human, UniProt P00533 25-645); assay: ELISA Exp 1, mAb supernatant
# T1 construct: also called wt EGFR; EGFR WT
# Description: (§1) Pre- and post-immune sera titers of animals were assessed by ELISA on recombinant EGFRvIII protein. Unless otherwise stated, all incubations were performed at room temperature. […] Microplates were washed three times in PBS and blocked for 30 min with PBS containing 1% bovine serum albumin (BSA, Sigma Cat #A7030). Blocking buffer was removed and 25 μl of serial dilutions of sera samples were added. […] After a 1-h incubation, microplates were washed 4 times and 25 μl of p-nitrophenyl phosphate (pNPP) substrate (Sigma-Aldrich Canada Co., Oakville, ON) at 1 mg/ml in carbonate buffer at pH 9.6 was added and further incubated for 30 min.
# (§2) Antigens at 1-2 mg/ml were incubated at 95° C. for 5 min in PBS containing DTT at a final concentration of 40 mM. They were then incubated on ice for 5 min and diluted at their final coating concentration for ELISA purpose.
# (§3) ELISA was performed as described above (serum titer determination) using 25 μl of mAb supernatant (Exp 1) or purified mAb at 1 μg/ml (Exp 2).
# [2] = target: T2, recombinant human wild type EGFR protein (extracellular domain), denatured (human, UniProt P00533 25-645); assay: ELISA Exp 1, mAb supernatant
# T2 construct: Same protein as m23 after 95 C for 5 min in PBS with 40 mM DTT (denatured, reduced); also called wt EGFR Denatured
# Description: as §1, §2, §3
# [3] = target: T3, recombinant human EGFRvIII protein (extracellular domain), native (human, UniProt P00533 298-623); assay: ELISA Exp 1, mAb supernatant
# T3 construct: also called hEGFRvIII
# Description: as §1, §2, §3
# [4] = target: T4, recombinant human EGFRvIII protein (extracellular domain), denatured (human, UniProt P00533 298-623); assay: ELISA Exp 1, mAb supernatant
# T4 construct: Same protein as m21 after 95 C for 5 min in PBS with 40 mM DTT (denatured, reduced); also called EGFRvIII Denatured
# Description: as §1, §2, §3
# [5] = target: T5, EGFRvIII fragment amino acid residues 19 to 37, displayed on yeast (human); assay: yeast surface display, flow cytometry
# T5 construct: also called aa 19-37
# T5 peptide: ACGADSYEMEEDGVRKCKK
# Excerpt: (§4) Assessment of the binding of anti-EGFRvIII mAbs to the fusion proteins expressed on yeast cell surface was done by flow cytometry analysis. Briefly, yeast cells were labeled with both the anti-hEGFRvIII mAb and chicken anti-Myc antibody, the latter being used to monitor the level of expression of the fusion protein. Following a wash step, binding of the primary antibodies is probed by a two-color indirect fluorescence labeling using secondary antibodies specific for mouse and chicken antibodies, respectively.
# [6] = target: T6, EGFRvIII, full length, overexpressed on glioblastoma cells (human, UniProt P00533 298-623); assay: cell-based or functional assay
# [7] = target: wild type human EGFR, full length, overexpressed on U87MG cells (human, UniProt P00533 25-1210); assay: cell-based or functional assay
# [8] = target: T6, EGFRvIII, full length, overexpressed on …; assay: flow cytometry dose-response on U87MG-EGFRvIII cells, apparent Kd
# Description: Prior to analysis, cells were plated such that they were not more than 80% confluent on the day of analysis. Unless otherwise stated, all media are kept are 4° C. and all incubations are performed on wet ice. Cells were washed in PBS, harvested by the addition of cell dissociation buffer (Sigma), centrifuged and resuspended in complete medium at a cell density of 2×10⁶ cells/mL. Fifty μL/well of cells were distributed in a polypropylene v-bottom 96 well plate and serial 1/3 dilutions of purified mAbs starting at 100 nM were added and incubated for 2 hours. […] Cells were washed and re-suspended in medium containing Propidium iodide to exclude dead cells from analysis. Samples were filtered through a 60 μm nylon mesh filter plate (Millipore, Ireland) to remove cell aggregates. Flow cytometry analyses were performed on 2,000 viable single-cells events gated on forward scattering, side scattering parameters and propidium iodide dye exclusion using a BD-LSRFortessa flow cytometer (Becton-Dickinson Biosciences, CA, USA) and a standard filter set using BD FACSDiva™ acquisition software, according to manufacturer's instructions.
# Specific detection of antibody binding was calculated as the mean fluorescent intensity of binding to each primary antibody after background level subtraction of the mean fluorescent intensity of binding of mouse IgG control. The data were analyzed with GraphPad Prism v 6.0 software using one-site specific binding with Hill slope non-linear regression curve fit model to determine Bmax (maximum specific binding) and Kdₐₚₚ (concentration needed to achieve a half-maximum binding at equilibrium) for each mAb tested.
# [9] = target: T7, EGFRvIII amino acid residues 15 to 37 with Gly21 to Ala mutation (human); assay: yeast display flow cytometry, Myc-normalized;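 further: Anti-EGFRvIII monoclonal antibodies tested by flow cytometry on yeast displaying alanine-substituted fragments, two-color indirect fluorescence with anti-Myc signal tracking fusion protein expression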
# T7 construct: mutation is already in the entry
# T7 peptide: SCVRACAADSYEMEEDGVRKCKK
# Excerpt: as §4
# (§5) To further characterize mAb epitopes within the EGFRvIII 15-37 region, an alanine scan of this region was performed, and modified fragments were expressed at the surface of the yeast. […] The resulting peptides were expressed at the surface of the yeast and each anti-EGFRvIII mAbs was tested on the corresponding yeast mutant strain by flow cytometry analysis. Thus, this assay determined the contribution of each amino acid(s) in the monoclonal antibody binding.
# [10] = target: T8, EGFRvIII amino acid residues 15 to 37 with Asp23 to Ala mutation (human); assay: yeast display flow cytometry, Myc-normalized;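 further: Anti-EGFRvIII monoclonal antibodies tested by flow cytometry on yeast displaying alanine-substituted fragments, two-color indirect fluorescence with anti-Myc signal tracking fusion protein expression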
# T8 construct: mutation is already in the entry
# T8 peptide: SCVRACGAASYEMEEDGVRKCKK
# Excerpt: as §4, §5
# [11] = target: T9, EGFRvIII amino acid residues 15 to 37 with Lys36 to Ala mutation (human); assay: yeast display flow cytometry, Myc-normalized;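 further: Anti-EGFRvIII monoclonal antibodies tested by flow cytometry on yeast displaying alanine-substituted fragments, two-color indirect fluorescence with anti-Myc signal tracking fusion protein expression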
# T9 construct: mutation is already in the entry
# T9 peptide: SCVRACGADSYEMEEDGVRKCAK
# Excerpt: as §4, §5
# [12] = target: T10, EGFRvIII amino acid residues 15 to 37 with Ser15 to Ala mutation (human); assay: yeast display flow cytometry, Myc-normalized;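 further: Anti-EGFRvIII monoclonal antibodies tested by flow cytometry on yeast displaying alanine-substituted fragments, two-color indirect fluorescence with anti-Myc signal tracking fusion protein expression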
# T10 construct: mutation is already in the entry
# T10 peptide: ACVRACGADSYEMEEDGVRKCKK
# Excerpt: as §4, §5
# [13] = target: T11, EGFRvIII amino acid residues 15 to 37 with Tyr25 to Ala mutation (human); assay: yeast display flow cytometry, Myc-normalized
# T11 construct: mutation is already in the entry
# T11 peptide: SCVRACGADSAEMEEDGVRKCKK
# Excerpt: as §4, §5
# [14] = target: T12, EGFRvIII amino acid residues 15 to 37 with Glu28 to Ala mutation (human); assay: yeast display flow cytometry, Myc-normalized
# T12 construct: mutation is already in the entry
# T12 peptide: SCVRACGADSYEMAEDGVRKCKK
# Excerpt: as §4, §5
# [15] = target: T13, EGFRvIII amino acid residues 15 to 37 with Val32 to Ala mutation (human); assay: yeast display flow cytometry, Myc-normalized
# T13 construct: mutation is already in the entry
# T13 peptide: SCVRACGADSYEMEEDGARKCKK
# Excerpt: as §4, §5
# [16] = target: T14, EGFRvIII amino acid residues 15 to 37 with Met27 to Ala mutation (human); assay: yeast display flow cytometry, Myc-normalized
# T14 construct: mutation is already in the entry
# Excerpt: as §4, §5
# [17] = target: T15, EGFRvIII amino acid residues 15 to 37 with Ser24 to Ala mutation (human); assay: yeast display flow cytometry, Myc-normalized
# T15 construct: mutation is already in the entry
# T15 peptide: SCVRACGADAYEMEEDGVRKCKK
# Excerpt: as §4, §5
# [18] = target: T16, EGFRvIII amino acid residues 15 to 37 with Lys34 to Ala mutation (human); assay: yeast display flow cytometry, Myc-normalized
# T16 construct: mutation is already in the entry
# T16 peptide: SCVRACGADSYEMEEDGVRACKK
# Excerpt: as §4, §5
# [19] = target: T17, EGFRvIII amino acid residues 15 to 37 with Lys37 to Ala mutation (human); assay: yeast display flow cytometry, Myc-normalized
# T17 construct: mutation is already in the entry
# T17 peptide: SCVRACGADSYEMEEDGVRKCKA
# Excerpt: as §4, §5
# [20] = target: T18, EGFRvIII amino acid residues 15 to 37 with Arg18 to Ala mutation (human); assay: yeast display flow cytometry, Myc-normalized
# T18 construct: mutation is already in the entry
# T18 peptide: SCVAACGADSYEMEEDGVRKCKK
# Excerpt: as §4, §5
# [21] = target: T19, EGFRvIII amino acid residues 15 to 37 with Cys16 to Ala mutation (human); assay: yeast display flow cytometry, Myc-normalized
# T19 construct: mutation is already in the entry
# T19 peptide: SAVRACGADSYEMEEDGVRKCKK
# Excerpt: as §4, §5
# [22] = target: T20, EGFRvIII amino acid residues 15 to 37 with Val17 to Ala mutation (human); assay: yeast display flow cytometry, Myc-normalized
# T20 construct: mutation is already in the entry
# T20 peptide: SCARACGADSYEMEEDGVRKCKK
# Excerpt: as §4, §5
# [23] = target: T21, EGFRvIII amino acid residues 15 to 37 with Glu29 to Ala mutation (human); assay: yeast display flow cytometry, Myc-normalized
# T21 construct: mutation is already in the entry
# T21 peptide: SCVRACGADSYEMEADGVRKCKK
# Excerpt: as §4, §5
# [24] = target: T22, EGFRvIII amino acid residues 15 to 37 with Cys35 to Ala mutation (human); assay: yeast display flow cytometry, alanine scan
# T22 construct: mutation is already in the entry
# T22 peptide: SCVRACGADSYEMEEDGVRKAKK
# Excerpt: as §4, §5
# [25] = target: T23, EGFRvIII amino acid residues 15 to 37 with Asp30 to Ala mutation (human); assay: yeast display flow cytometry, alanine scan
# T23 construct: mutation is already in the entry
# T23 peptide: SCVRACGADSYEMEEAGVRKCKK
# Excerpt: as §4, §5
# [26] = target: T24, EGFRvIII amino acid residues 15 to 37 with Glu26 to Ala mutation (human); assay: yeast display flow cytometry, alanine scan
# T24 construct: mutation is already in the entry
# T24 peptide: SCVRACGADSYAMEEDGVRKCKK
# Excerpt: as §4, §5
# [27] = target: T25, EGFRvIII amino acid residues 15 to 37 with Cys20 to Ala mutation (human); assay: yeast display flow cytometry, alanine scan
# T25 construct: mutation is already in the entry
# T25 peptide: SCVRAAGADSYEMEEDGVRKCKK
# Excerpt: as §4, §5
# [28] = target: T26, EGFRvIII amino acid residues 15 to 37 with Arg33 to Ala mutation (human); assay: yeast display flow cytometry, alanine scan
# T26 construct: mutation is already in the entry
# T26 peptide: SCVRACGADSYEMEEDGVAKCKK
# Excerpt: as §4, §5
# [29] = target: T27, EGFRvIII amino acid residues 15 to 37 with Gly31 to Ala mutation (human); assay: yeast display flow cytometry, alanine scan
# T27 construct: mutation is already in the entry
# T27 peptide: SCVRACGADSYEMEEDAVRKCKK
# Excerpt: as §4, §5
# [30] = target: T1, recombinant human wild type EGFR …; assay: ELISA Exp 2, purified mAb 1 ug/ml;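 further: ELISA of purified mAb binding to plate-coated antigen, native or heat/DTT-denatured, with pNPP substrate developed for 30 min and incubations at room temperature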
# [31] = target: T2, recombinant human wild type EGFR …; assay: ELISA Exp 2, purified mAb 1 ug/ml;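 further: ELISA of purified mAb binding to plate-coated antigen, native or heat/DTT-denatured, with pNPP substrate developed for 30 min and incubations at room temperature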
# [32] = target: T3, recombinant human EGFRvIII protein …; assay: ELISA Exp 2, purified mAb 1 ug/ml;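 further: ELISA of purified mAb binding to plate-coated antigen, native or heat/DTT-denatured, with pNPP substrate developed for 30 min and incubations at room temperature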
# [33] = target: T4, recombinant human EGFRvIII protein …; assay: ELISA Exp 2, purified mAb 1 ug/ml;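 further: ELISA of purified mAb binding to plate-coated antigen, native or heat/DTT-denatured, with pNPP substrate developed for 30 min and incubations at room temperature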
# T14 sequence (peptide, as listed by the source, change not shown): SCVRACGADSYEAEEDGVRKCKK
binder,measurement,setting,value
B1,ELISA absorbance 405 nm,[1],1.62 A405
same,ELISA absorbance 405 nm,[2],0.029 A405
same,ELISA absorbance 405 nm,[3],1.36 A405
same,ELISA absorbance 405 nm,[4],1.39 A405
same,binding result,[5],binds
same,"% survival (DM1 secondary-conjugate ADC surrogate assay, vs mouse IgG)",[6],54%
same,"% survival (DM1 secondary-conjugate ADC surrogate assay, vs mouse IgG)",[7],> 98%
same,Kd,[8],6.7 nM
same,% of binding vs wild-type fragment 15-37,[9],180%
same,% of binding vs wild-type fragment 15-37,[10],58.4%
same,% of binding vs wild-type fragment 15-37,[11],110%
same,% of binding vs wild-type fragment 15-37,[12],94.9%
same,% of binding vs wild-type fragment 15-37,[13],83.3%
same,% of binding vs wild-type fragment 15-37,[14],90.9%
same,% of binding vs wild-type fragment 15-37,[15],30.4%
same,% of binding vs wild-type fragment 15-37,[16],102%
same,% of binding vs wild-type fragment 15-37,[17],170%
same,% of binding vs wild-type fragment 15-37,[18],130%
same,% of binding vs wild-type fragment 15-37,[19],191%
same,% of binding vs wild-type fragment 15-37,[20],102%
same,% of binding vs wild-type fragment 15-37,[21],176%
same,% of binding vs wild-type fragment 15-37,[22],148%
same,% of binding vs wild-type fragment 15-37,[23],75.3%
same,binding result,[24],no binding (tested: 0-15% of wild-type binding)
same,binding result,[25],no binding (tested: 0-15% of wild-type binding)
same,binding result,[26],no binding (tested: 0-15% of wild-type binding)
same,binding result,[27],no binding (tested: 0-15% of wild-type binding)
same,binding result,[28],no binding (tested: 0-15% of wild-type binding)
same,binding result,[29],no binding (tested: 0-15% of wild-type binding)
same,ELISA absorbance 405 nm,[30],1.7 A405
same,ELISA absorbance 405 nm,[31],0.001 A405
same,ELISA absorbance 405 nm,[32],1.53 A405
same,ELISA absorbance 405 nm,[33],0.997 A405
